Tests used:
[1] = test system: HeLa Kyoto; assay: solubility in G1/S (NP-40 vs SDS abundance) (log2 ratio); higher = more soluble; settings: cell cycle stage: G1/S
[2] = test system: HeLa Kyoto; assay: solubility change mitosis vs G1/S (difference of NP-40 vs SDS log2 ratios) (log2 ratio difference); higher = more soluble in mitosis
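For solubility change mitosis vs G1/S (difference of NP-40 vs SDS log2 ratios) in this document: synchronized HeLa Kyoto cells (double thymidine block for G1/S, nocodazole release for mitosis), protein amounts in NP-40 versus SDS lysates quantified by mass spectrometry, three biological replicates.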
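For solubility in G1/S (NP-40 vs SDS abundance) in this document: HeLa Kyoto cells arrested at G1/S by double thymidine block, proteins quantified by TMT10plex mass spectrometry in mild NP-40 versus SDS extracts, three biological replicates.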

Sequence: MSWIPFKIGQPKKQIVPKTVERDFEREYGKLQQLEEQTRRLQKDMKKSTDADLAMSKSAVKISLDLLSNPLCEQDQDLLNMVTALDTAMKRMDAFNQEKVNQIQKTVIEPLKKFGSVFPSLNMAVKRREQALQDYRRLQAKVEKYEEKEKTGPVLAKLHQAREELRPVREDFEAKNRQLLEEMPRFYGSRLDYFQPSFESLIRAQVVYYSEMHKIFGDLSHQLDQPGHSDEQRERENEAKLSELRALSIVADD [BIN3]
- solubility in G1/S (log2) [1]: 0.418
- solubility change mitosis (log2) [2]: 0.0471

Sequence: MSWLLFLAHRVALAALPCRRGSRGFGMFYAVRRGRKTGVFLTWNECRAQVDRFPAARFKKFATEDEAWAFVRKSASPEVSEGHENQHGQESEAKASKRLREPLDGDGHESAEPYAKHMKPSVEPAPPVSRDTFSYMGDFVVVYTDGCCSSNGRRRPRAGIGVYWGPGHPLNVGIRLPGRQTNQRAEIHAACKAIEQAKTQNINKLVLYTDSMFTINGITNWVQGWKKNGWKTSAGKEVINKEDFVALERLTQGMDIQWMHVPGHSGFIGNEEADRLAREGAKQSED [RNASEH1]
- solubility in G1/S (log2) [1]: 0.274
- solubility change mitosis (log2) [2]: -0.0935

Sequence: MTALSARMLTRSRSLGPGAGPRGCREEPGPLRRREAAAEARKSHSPVKRPRKAQRLRVAYEGSDSEKGEGAEPLKVPVWEPQDWQQQLVNIRAMRNKKDAPVDHLGTEHCYDSSAPPKVRRYQVLLSLMLSSQTKDQVTAGAMQRLRARGLTVDSILQTDDATLGKLIYPVGFWRSKVKYIKQTSAILQQHYGGDIPASVAELVALPGVGPKMAHLAMAVAWGTVSGIAVDTHVHRIANRLRWTKKATKSPEETRAALEEWLPRELWHEINGLLVGFGQQTCLPVHPRCHACLNQALCPAAQGL [NTHL1]
- solubility in G1/S (log2) [1]: 0.0579
- solubility change mitosis (log2) [2]: 0.29

Sequence: MTLKASEGESGGSMHTALSDLYLEHLLQKRSRPEAVSHPLNTVTEDMYTNGSPAPGSPAQVKGQEVRKVRLIQFEKVTEEPMGITLKLNEKQSCTVARILHGGMIHRQGSLHVGDEILEINGTNVTNHSVDQLQKAMKETKGMISLKVIPNQQSRLPALQMFMRAQFDYDPKKDNLIPCKEAGLKFATGDIIQIINKDDSNWWQGRVEGSSKESAGLIPSPELQEWRVASMAQSAPSEAPSCSPFGKKKKYKDKYLAKHSSIFDQLDVVSYEEVVRLPAFKRKTLVLIGASGVGRSHIKNALLSQNPEKFVYPVPYTTRPPRKSEEDGKEYHFISTEEMTRNISANEFLEFGSYQGNMFGTKFETVHQIHKQNKIAILDIEPQTLKIVRTAELSPFIVFIAPTDQGTQTEALQQLQKDSEAIRSQYAHYFDLSLVNNGVDETLKKLQEAFDQACSSPQWVPVSWVY [MPP1]
- solubility in G1/S (log2) [1]: 0.098
- solubility change mitosis (log2) [2]: -0.0545

Sequence: MTMGDKKSPTRPKRQAKPAADEGFWDCSVCTFRNSAEAFKCSICDVRKGTSTRKPRINSQLVAQQVAQQYATPPPPKKEKKEKVEKQDKEKPEKDKEISPSVTKKNTNKKTKPKSDILKDPPSEANSIQSANATTKTSETNHTSRPRLKNVDRSTAQQLAVTVGNVTVIITDFKEKTRSSSTSSSTVTSSAGSEQQNQSSSGSESTDKGSSRSSTPKGDMSAVNDESF [RYBP]
- solubility in G1/S (log2) [1]: 0.252
- solubility change mitosis (log2) [2]: 0.0865

Sequence: MTPVRMQHSLAGQTYAVPLIQPDLRREEAVQQMADALQYLQKVSGDIFSRISQQVEQSRSQVQAIGEKVSLAQAKIEKIKGSKKAIKVFSSAKYPAPERLQEYGSIFTGAQDPGLQRRPRHRIQSKHRPLDERALQEKLKDFPVCVSTKPEPEDDAEEGLGGLPSNISSVSSLLLFNTTENLYKKYVFLDPLAGAVTKTHVMLGAETEEKLFDAPLSISKREQLEQQVPENYFYVPDLGQVPEIDVPSYLPDLPGIANDLMYIADLGPGIAPSAPGTIPELPTFHTEVAEPLKVDLQDGVLTPPPPPPPPPPAPEVLASAPPLPPSTAAPVGQGARQDDSSSSASPSVQGAPREVVDPSGGRATLLESIRQAGGIGKAKLRSMKERKLEKKKQKEQEQVRATSQGGHLMSDLFNKLVMRRKGISGKGPGAGEGPGGAFARVSDSIPPLPPPQQPQAEEDEDDWES [WASH2P]
- solubility in G1/S (log2) [1]: 0.453
- solubility change mitosis (log2) [2]: 0.0339

Sequence: MTQDRPLLAVQEALKKCFPVVEEQQGLWQSALRDCQPLLSSLSNLAEQLQAAQNLRFEDVPALRAFPDLKERLRRKQLVAGDIVLDKLGERLAILLKVRDMVSSHVERVFQIYEQHADTVGIDAVLQPSAVSPSVADMLEWLQDIERHYRKSYLKRKYLLSSIQWGDLANIQALPKAWDRISKDEHQDLVQDILLNVSFFLEE [C1ORF109]
- solubility in G1/S (log2) [1]: 0.0701
- solubility change mitosis (log2) [2]: 0.16

Sequence: MTSKGPEEEHPSVTLFRQYLRIRTVQPKPDYGAAVAFFEETARQLGLGCQKVEVAPGYVVTVLTWPGTNPTLSSILLNSHTDVVPVFKEHWSHDPFEAFKDSEGYIYARGAQDMKCVSIQYLEAVRRLKVEGHRFPRTIHMTFVPDEEVGGHQGMELFVQRPEFHALRAGFALDEGIANPTDAFTVFYSERSPWWVRVTSTGRPGHASRFMEDTAAEKLHKVVNSILAFREKEWQRLQSNPHLKEGSVTSVNLTKLEGGVAYNVIPATMSASFDFRVAPDVDFKAFEEQLQSWCQAAGEGVTLEFAQKWMHPQVTPTDDSNPWWAAFSRVCKDMNLTLEPEIMPAATDNRYIRAVGVPALGFSPMNRTPVLLHDHDERLHEAVFLRGVDIYTRLLPALASVPALPSDS [ACY1]
- solubility in G1/S (log2) [1]: 0.288
- solubility change mitosis (log2) [2]: -0.0632

Sequence: MTTRQATKDPLLRGVSPTPSKIPVRSQKRTPFPTVTSCAVDQENQDPRRWVQKPPLNIQRPLVDSAGPRPKARHQAETSQRLVGISQPRNPLEELRPSPRGQNVGPGPPAQTEAPGTIEFVADPAALATILSGEGVKSCHLGRQPSLAKRVLVRGSQGGTTQRVQGVRASAYLAPRTPTHRLDPARASCFSRLEGPGPRGRTLCPQRLQALISPSGPSFHPSTRPSFQELRRETAGSSRTSVSQASGLLLETPVQPAFSLPKGEREVVTHSDEGGVASLGLAQRVPLRENREMSHTRDSHDSHLMPSPAPVAQPLPGHVVPCPSPFGRAQRVPSPGPPTLTSYSVLRRLTVQPKTRFTPMPSTPRVQQAQWLRGVSPQSCSEDPALPWEQVAVRLFDQESCIRSLEGSGKPPVATPSGPHSNRTPSLQEVKIQRIGILQQLLRQEVEGLVGGQCVPLNGGSSLDMVELQPLLTEISRTLNATEHNSGTSHLPGLLKHSGLPKPCLPEECGEPQPCPPAEPGPPEAFCRSEPEIPEPSLQEQLEVPEPYPPAEPRPLESCCRSEPEIPESSRQEQLEVPEPCPPAEPRPLESYCRIEPEIPESSRQEQLEVPEPCPPAEPGPLQPSTQGQSGPPGPCPRVELGASEPCTLEHRSLESSLPPCCSQWAPATTSLIFSSQHPLCASPPICSLQSLRPPAGQAGLSNLAPRTLALRERLKSCLTAIHCFHEARLDDECAFYTSRAPPSGPTRVCTNPVATLLEWQDALCFIPVGSAAPQGSP [TROAP]
- solubility in G1/S (log2) [1]: 0.0401
- solubility change mitosis (log2) [2]: 0.651

Sequence: MVARVWSLMRFLIKGSVAGGAVYLVYDQELLGPSDKSQAALQKAGEVVPPAMYQFSQYVCQQTGLQIPQLPAPPKIYFPIRDSWNAGIMTVMSALSVAPSKAREYSKEGWEYVKARTK [MIC13]
- solubility in G1/S (log2) [1]: 0.091
- solubility change mitosis (log2) [2]: 0.449

Sequence: MVDHLANTEINSQRIAAVESCFGASGQPLALPGRVLLGEGVLTKECRKKAKPRIFFLFNDILVYGSIVLNKRKYRSQHIIPLEEVTLELLPETLQAKNRWMIKTAKKSFVVSAASATERQEWISHIEECVRRQLRATGRPPSTEHAAPWIPDKATDICMRCTQTRFSALTRRHHCRKCGFVVCAECSRQRFLLPRLSPKPVRVCSLCYRELAAQQRQEEAEEQGAGSPGQPAHLARPICGASSGDDDDSDEDKEGSRDGDWPSSVEFYASGVAWSAFHS [PLEKHF1]
- solubility in G1/S (log2) [1]: 0.0679
- solubility change mitosis (log2) [2]: 0.00206

Sequence: MVKLIHTLADHGDDVNCCAFSFSLLATCSLDKTIRLYSLRDFTELPHSPLKFHTYAVHCCCFSPSGHILASCSTDGTTVLWNTENGQMLAVMEQPSGSPVRVCQFSPDSTCLASGAADGTVVLWNAQSYKLYRCGSVKDGSLAACAFSPNGSFFVTGSSCGDLTVWDDKMRCLHSEKAHDLGITCCDFSSQPVSDGEQGLQFFRLASCGQDCQVKIWIVSFTHILGFELKYKSTLSGHCAPVLACAFSHDGQMLVSGSVDKSVIVYDTNTENILHTLTQHTRYVTTCAFAPNTLLLATGSMDKTVNIWQFDLETLCQARRTEHQLKQFTEDWSEEDVSTWLCAQDLKDLVGIFKMNNIDGKELLNLTKESLADDLKIESLGLRSKVLRKIEELRTKVKSLSSGIPDEFICPITRELMKDPVIASDGYSYEKEAMENWISKKKRTSPMTNLVLPSAVLTPNRTLKMAINRWLETHQK [WDSUB1]
- solubility in G1/S (log2) [1]: -0.0154
- solubility change mitosis (log2) [2]: -0.112

Sequence: MVTNKMTAAFRNPSGKQVATDKVAEKLSSTLSWVKNTVSHTVSQMASQVASPSTSLHTTSSSTTLSTPALSPSSPSQLSPDDLELLAKLEEQNRLLETDSKSLRSVNGSRRNSGSSLVSSSSASSNLSHLEEDSWILWGRIVNEWEDVRKKKEKQVKELVHKGIPHHFRAIVWQLLCSAQSMPIKDQYSELLKMTSPCEKLIRRDIARTYPEHNFFKEKDSLGQEVLFNVMKAYSLVDREVGYCQGSAFIVGLLLMQMPEEEAFCVFVKLMQDYRLRELFKPSMAELGLCMYQFECMIQEHLPELFVHFQSQSFHTSMYASSWFLTIFLTTFPLPIATRIFDIFMSEGLEIVFRVGLALLQMNQAELMQLDMEGMLQHFQKVIPHQFDGVPDKLIQAAYQVKYNSKKMKKLEKEYTTIKTKEMEEQVEIKRLRTENRLLKQRIETLEKHKCSSNYNEDFVLQLEKELVQARLSEAESQCALKEMQDKVLDIEKRNNSLPDENNIARLQEELIAVKLREAEAIMGLKELRQQVKDLEEHWQRHLARTTGRWKDPPKKNAMNELQDELMTIRLREAETQAEIREIKQRMMEMETQNQINSNHLRRAEQEVISLQEKVQYLSAQNKGLLTQLSEAKRKQAEIECKNKEEVMAVRLREADSIAAVAELRQHIAELEIQKEEGKLQGQLNKSDSNQYIGELKDQIAELNHELRCLKGQRGFSGQPPFDGIHIVNHLIGDDESFHSSDEDFIDNSLQETGVGFPLHGKSGSMSLDPAVADGSESETEDSVLETRESNQVVQKERPPRRRESYSTTV [EVI5]
- solubility in G1/S (log2) [1]: 0.129
- solubility change mitosis (log2) [2]: -0.288

Sequence: MWCIVLFSLLAWVYAEPTMYGEILSPNYPQAYPSEVEKSWDIEVPEGYGIHLYFTHLDIELSENCAYDSVQIISGDTEEGRLCGQRSSNNPHSPIVEEFQVPYNKLQVIFKSDFSNEERFTGFAAYYVATDINECTDFVDVPCSHFCNNFIGGYFCSCPPEYFLHDDMKNCGVNCSGDVFTALIGEIASPNYPKPYPENSRCEYQIRLEKGFQVVVTLRREDFDVEAADSAGNCLDSLVFVAGDRQFGPYCGHGFPGPLNIETKSNALDIIFQTDLTGQKKGWKLRYHGDPMPCPKEDTPNSVWEPAKAKYVFRDVVQITCLDGFEVVEGRVGATSFYSTCQSNGKWSNSKLKCQPVDCGIPESIENGKVEDPESTLFGSVIRYTCEEPYYYMENGGGGEYHCAGNGSWVNEVLGPELPKCVPVCGVPREPFEEKQRIIGGSDADIKNFPWQVFFDNPWAGGALINEYWVLTAAHVVEGNREPTMYVGSTSVQTSRLAKSKMLTPEHVFIHPGWKLLEVPEGRTNFDNDIALVRLKDPVKMGPTVSPICLPGTSSDYNLMDGDLGLISGWGRTEKRDRAVRLKAARLPVAPLRKCKEVKVEKPTADAEAYVFTPNMICAGGEKGMDSCKGDSGGAFAVQDPNDKTKFYAAGLVSWGPQCGTYGLYTRVKNYVDWIMKTMQENSTPRED [C1S]
- solubility in G1/S (log2) [1]: 0.0236
- solubility change mitosis (log2) [2]: -0.029

Reference: the supplement of paper PMC5998384
